Reference: patent US5795761A, “Mutants of 2,5-diketo-D-gluconic acid (2,5-DKG) reductase A” (Rutgers, The State University of New Jersey, priority 1996, dated 1998)
Positions count from the first letter of the chain named. Numbers in names are those of the source.

B1: Corynebacterium sp. 2,5-DKG reductase A, wild type (Corynebacterium sp. ATCC 31090) (protein)
chain: MTVPSIVLNDGNSIPQLGYGVFKVPPADTQRAVEEALEVGYRHIDTAAIYGNEEGVGAAIAASGIARDDLFITTKLWNDRHDGDEPAAAIAESLAKLALDQVDLYLVHWPTPAADNYVHAWEKMIELRAAGLTRSIGVSNHLVPHLERIVAATGVVPAVNQIELHPAYQQREITDWAAAHDVKIESWGPLGQGKYDLFGAEPVTAAAAAHGKTPAQAVLRWHLQKGFVVFPKSVRRERLEENLDVFDFDLTDTEIAAIDAMDPGDGSGRVSAHPDEVD
notes: made in house; host or cells: Acetobacter cerinus (ATCC No. 39140)
B2: Corynebacterium sp. 2,5-DKG reductase A mutant Q192R (Corynebacterium sp. ATCC 31090; Q192R) (protein)
chain: B1 chain with Q192R
notes: made in house; host or cells: Acetobacter cerinus
B3: Corynebacterium sp. 2,5-DKG reductase A mutant F22Y/A272G (Corynebacterium sp. ATCC 31090; A272G/F22Y) (protein)
chain: B1 chain with F22Y, A272G
notes: made in house
B4: Corynebacterium sp. 2,5-DKG reductase A mutant A272G (Corynebacterium sp. ATCC 31090; A272G) (protein)
chain: B1 chain with A272G
notes: made in house

Assays:
Format in all cases: biochemical, Corynebacterium sp. (ATCC 31090)
[1] = substrate: O=C(O)C(=O)[C@@H](O)[C@H](O)C(=O)CO; test: Substrate kinetics of 2,5-DKG reduction (NADPH oxidation followed at 340 nm); settings: other: 50 mM tris pH 7.0, 0.2 mM NADPH, 2 to 14 mM substrate, 25° C.
Protocol: (§1) The preparations of wild-type and mutant Q192R 2,5-DKG reductase A enzymes were characterized kinetically as to their ability to reduce the substrate 2,5-DKG to 2-KLG. Assays were done in 1 ml total volume of 50 mM tris, pH 7.0, containing 0.2 mM NADPH, a constant amount of enzyme (15-20 μg) and amounts of substrate varying from 2 to 14 mM. The assays were done at 25° C., and the rate of substrate reduction was measured spectrophotometrically by measuring the loss of absorbance at 340 nm wavelength (which is indicative of the oxidation of the cofactor NADPH to NADP+).
The data were analyzed according to the well-known Michaelis equation to determine the kinetic parameters Vmax and Km using the Enzfit software package (Biosoft, Cambridge, UK) on a Epson desktop computer.

[2] = substrate: NC(=O)C1=CN([C@@H]2O[C@H](COP(=O)(O)OP(=O)(O)OC[C@H]3O[C@@H](n4cnc5c(N)ncnc54)[C@H](OP(=O)(O)O)[C@@H]3O)[C@@H](O)[C@H]2O)C=CC1; test: Cofactor kinetics, constant 2,5-DKG and varying NADPH; settings: other: 50 mM bis-Tris pH 6.8, 10 mM 2,5-DKG, 2.5 to 200 μM NADPH
Protocol: The cofactor affinity of DKG reductase A F22Y, Q192R, A272G, and F22Y/A272G was determined by analysis of a series of reactions with constant substrate concentration and varying concentrations of NADPH.
Each series of reactions consisted of 50 mM bis-Tris pH 6.8, 10 mM 2,5-DKG, from 2.5 to 200 μM NADPH, and enzyme in a total volume of 1.0 ml.
Initial rate data for the reactions were fitted to the Michaelis-Menten equation by non-linear regression analysis as previously described to determine KM,NADPH.

[3] = substrate: O=C(O)C(=O)[C@@H](O)[C@H](O)C(=O)CO; test: Substrate kinetics of 2,5-DKG reduction, 200 μM NADPH, substrate 0 to 30 mM; settings: other: 200 μM NADPH, 0 to 30 mM 2,5-DKG; pH 7.0; 25.0 °C
Protocol: as §1
A crude kinetic characterization of 2,5-DKG Reductase A mutants D278A, V277A, E276A, D275A, P274A, H273A, A272G, S271A, V270A, R269A, S267A, and D265A was carried out. […] 2-5-DKG Reductase A mutant A272G was characterized in essentially the same manner as in Example 5 except that in order to determine kinetic parameters for the NADPH-dependent reduction of 2,5-DKG by 2,5-DKG reductases, a series of reactions were done with constant saturating concentration of NADPH (200 μM) and varying concentrations of substrate from 0 to 30 mM.

Protein	Km [1]	Vmax [1]	kcat/Km [1]	Km [2]	Km [3]	kcat [3]
B1	28 mM	7.8 μmoles per minute per milligram of protein	140 M⁻¹ s⁻¹			
B2	21 mM	14.0 μmoles per minute per milligram of protein	335 M⁻¹ s⁻¹			
B3				0.00819 mM		
B4				0.00492 mM	42.61 ± 12.13 mM	21.44 ± 4.10 s⁻¹
